Assay results taken from article PMC5435892 (Genes & Development, 2017).
Substitutions are numbered along the chain they refer to. In names and notes the source's numbering stands.

Assays:
[1] = target: T1, SUMO-Ulp2^781–873 (S. cerevisiae, UniProt P40537 781-873); test: SEC-MALS
T1 sequence (looked up): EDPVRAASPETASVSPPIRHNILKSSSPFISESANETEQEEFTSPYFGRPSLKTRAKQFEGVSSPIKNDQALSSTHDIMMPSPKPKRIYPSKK

[2] = target: the molecule itself; test: crystal structure
[3] = target: T2, His6-Csm1 (full-length) (S. cerevisiae, UniProt P25651 1-190); test: pull-down
T2 sequence (looked up): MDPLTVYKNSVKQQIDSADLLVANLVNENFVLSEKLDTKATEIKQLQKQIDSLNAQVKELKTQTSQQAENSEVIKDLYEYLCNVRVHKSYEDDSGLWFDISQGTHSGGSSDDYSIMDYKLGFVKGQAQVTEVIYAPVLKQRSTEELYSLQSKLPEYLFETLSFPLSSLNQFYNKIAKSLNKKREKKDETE

[4] = target: T3, His6-Csm1^69–190 (S. cerevisiae, UniProt P25651 69-190); test: ITC
T3 sequence (looked up): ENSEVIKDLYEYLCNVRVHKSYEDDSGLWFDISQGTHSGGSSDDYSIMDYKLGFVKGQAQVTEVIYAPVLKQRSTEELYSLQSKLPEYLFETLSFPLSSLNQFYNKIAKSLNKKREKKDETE

[5] = target: T4, Ulp2^825–844–Tof2^384–400 fusion (S. cerevisiae, UniProt P40537 825-844; Q02208 384-400); test: co-expression in E. coli and co-purification
T4 chain (looked up): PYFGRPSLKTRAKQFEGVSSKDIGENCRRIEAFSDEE

B1: Csm1^69–181 (untagged, coexpressed) (domain or fragment, S. cerevisiae, UniProt P25651 69-181, looked up)
chain: ENSEVIKDLYEYLCNVRVHKSYEDDSGLWFDISQGTHSGGSSDDYSIMDYKLGFVKGQAQVTEVIYAPVLKQRSTEELYSLQSKLPEYLFETLSFPLSSLNQFYNKIAKSLNK
[1]
  stoichiometry N: 1 Csm1 per Ulp2 (2:2)
[2]
  stoichiometry N: 2

B2: GST-Ulp2^781–873 F827A (domain or fragment, S. cerevisiae, UniProt P40537 781-873, looked up)
chain: T1 sequence (looked up) with F47A
[3]
  binding result: binds

B3: GST-Ulp2^781–873 F839A (domain or fragment, S. cerevisiae, UniProt P40537 781-873, looked up)
chain: T1 sequence (looked up) with F59A
[3]
  binding result: binds

B4: His6-GST-Ulp2^781–873 (domain or fragment, S. cerevisiae, UniProt P40537 781-873, looked up)
chain: T1 sequence (looked up)
[4]
  Ka: 1.07e+06 M⁻¹
  dH: -8.613 ± 0.0517 kcal/mol
  stoichiometry N: 0.91 ± 0.004

B5: His6-GST-Ulp2^781–873 F839D (domain or fragment, S. cerevisiae, UniProt P40537 781-873, looked up)
chain: T1 sequence (looked up) with F59D
[4]
  Ka: 55800 M⁻¹
  dH: -1.08 ± 0.0584 kcal/mol
  stoichiometry N: 0.46 ± 0.02

B6: Csm1^69–190 (untagged, coexpressed) (domain or fragment, S. cerevisiae, UniProt P25651 69-190, looked up)
chain: T3 sequence (looked up)
[5]
  stoichiometry N: 1 Csm1 per fusion chain (2:2)
